PMC7347935, “STK11 (LKB1) missense somatic mutant isoforms promote tumor growth, motility and inflammation” (Communications Biology, 2020)

Molecular target: T1, LKB1^Y49D (human, UniProt Q15831 1-433, Y49D)
T1 sequence (looked up): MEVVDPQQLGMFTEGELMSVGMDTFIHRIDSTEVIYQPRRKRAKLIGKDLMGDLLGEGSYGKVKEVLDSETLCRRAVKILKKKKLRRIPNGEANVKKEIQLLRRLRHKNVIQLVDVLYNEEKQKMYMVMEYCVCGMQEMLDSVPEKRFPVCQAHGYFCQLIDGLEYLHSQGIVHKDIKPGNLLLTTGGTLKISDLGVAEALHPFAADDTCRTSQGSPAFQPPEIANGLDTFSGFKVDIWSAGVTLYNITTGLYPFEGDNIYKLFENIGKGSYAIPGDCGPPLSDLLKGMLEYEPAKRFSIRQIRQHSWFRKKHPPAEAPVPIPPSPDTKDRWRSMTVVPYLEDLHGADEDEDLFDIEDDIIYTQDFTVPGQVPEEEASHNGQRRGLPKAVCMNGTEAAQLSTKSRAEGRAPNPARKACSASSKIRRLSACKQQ
Experiment: cell-based or functional assay

specific in vitro kinase activity towards NUAKtide peptide in the presence of STRADα, relative to LKB1^WT: ~30 % of LKB1^WT activity
B1: STRADα (natural protein, human (endogenous in A549 and G361), UniProt Q7RTN6 1-431, looked up)
chain: MSFLVSKPERIRRWVSEKFIVEGLRDLELFGEQPPGDTRRKTNDASSESIASFSKQEVMSSFLPEGGCYELLTVIGKGFEDLMTVNLARYKPTGEYVTVRRINLEACSNEMVTFLQGELHVSKLFNHPNIVPYRATFIADNELWVVTSFMAYGSAKDLICTHFMDGMNELAIAYILQGVLKALDYIHHMGYVHRSVKASHILISVDGKVYLSGLRSNLSMISHGQRQRVVHDFPKYSVKVLPWLSPEVLQQNLQGYDAKSDIYSVGITACELANGHVPFKDMPATQMLLEKLNGTVPCLLDTSTIPAEELTMSPSRSVANSGLSDSLTTSTPRPSNGDSPSHPYHRTFSPHFHHFVEQCLQRNPDARPSASTLLNHSFFKQIKRRASEALPELLRPVTPITNFEGSQSQDHSGIFGLVTNLEELEVDDWEF
